{"source": "paper PMC12880628", "about": "“X-Ray Crystal Structure of the N-Terminal Domain of Staphylococcus Aureus Cell-Cycle Protein GpsB” (Crystals, 2025)", "target": "the molecule itself", "test": "crystal structure; SaGpsB 1-75 at 5 mg/mL, no ligand; reservoir 1.0 M succinic acid, 0.1 M HEPES pH 7.5, 1 %w/v PEG 2000 MME; one dimer in the asymmetric unit; molecular replacement", "data": [{"protein": "N-terminal domain (residues 1–75) of Staphylococcus aureus GpsB (domain or fragment, Staphylococcus aureus strain NCTC 8325, UniProt Q2FYI5 1-75, looked up, GpsB, Staphylococcus aureus strain NCTC 8325, Uniprot Q2FYI5, SAOUHSC_01462, residues 1-75 (N-terminal dimerization domain); Asymmetric homodimer in the crystal; also called SaGpsB; GpsB 1–75; source: E. coli BL21 (DE3), purified (Ni-NTA, SUMO protease cleavage, anion exchange, Superdex75 SEC); not shown: 10xHis, N-terminal, cleaved; SUMO, N-terminal, cleaved) MSDVSLKLSAKDIYEKDFEKTMARGYRREEVDAFLDDIIADYQKMADMNNEVVKLSEENHKLKKELEELRLRVAT", "values": [{"measurement": "stoichiometry N", "result": 2}]}]}
